Assay results reported in paper PMC11472053, “Structural basis of DNA recognition by BEN domain proteins reveals a role for oligomerization in unmethylated DNA selection by BANP” (Nucleic Acids Research, 2024).
Residue numbers refer to the chain shown, from its start.

Columns and labels:
Assay in all cases: ITC; ITC: 20 mM Tris pH 7.5, 200 mM NaCl, 2 mM beta-mercaptoethanol, 20 C; EMSA: 20 mM Tris pH 7.0, 200 mM NaCl, 2 mM DTT, 4 C, 1.2% agarose in TAE
[1] = target: T1, BANP BEN-DBD (human, UniProt Q8N9N5 205-519); conditions: protein: recombinant; tags: His-SUMO or His-MBP, cleaved; blunt, self-complementary
T1 sequence: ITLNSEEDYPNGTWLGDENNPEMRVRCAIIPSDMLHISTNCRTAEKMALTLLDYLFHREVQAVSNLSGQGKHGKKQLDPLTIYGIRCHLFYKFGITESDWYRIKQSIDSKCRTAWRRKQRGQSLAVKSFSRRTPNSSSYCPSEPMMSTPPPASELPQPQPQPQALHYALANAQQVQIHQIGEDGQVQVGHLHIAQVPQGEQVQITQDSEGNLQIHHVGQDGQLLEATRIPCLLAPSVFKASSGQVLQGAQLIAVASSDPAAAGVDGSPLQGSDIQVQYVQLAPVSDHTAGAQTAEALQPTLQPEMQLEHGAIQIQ

[2] = target: T2, BANP BEN K314A (human, UniProt Q8N9N5 205-325, K314A); conditions: protein: recombinant; tags: His-SUMO or His-MBP, cleaved; chain copies: 2; blunt, self-complementary
T2 sequence: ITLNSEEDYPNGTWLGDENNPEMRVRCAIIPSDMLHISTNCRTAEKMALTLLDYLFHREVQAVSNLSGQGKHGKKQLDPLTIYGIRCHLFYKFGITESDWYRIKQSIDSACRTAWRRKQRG

[3] = target: T3, BANP ΔCC (human, UniProt Q8N9N5 90-519); conditions: protein: recombinant; tags: His-SUMO or His-MBP, cleaved; blunt, self-complementary
T3 sequence: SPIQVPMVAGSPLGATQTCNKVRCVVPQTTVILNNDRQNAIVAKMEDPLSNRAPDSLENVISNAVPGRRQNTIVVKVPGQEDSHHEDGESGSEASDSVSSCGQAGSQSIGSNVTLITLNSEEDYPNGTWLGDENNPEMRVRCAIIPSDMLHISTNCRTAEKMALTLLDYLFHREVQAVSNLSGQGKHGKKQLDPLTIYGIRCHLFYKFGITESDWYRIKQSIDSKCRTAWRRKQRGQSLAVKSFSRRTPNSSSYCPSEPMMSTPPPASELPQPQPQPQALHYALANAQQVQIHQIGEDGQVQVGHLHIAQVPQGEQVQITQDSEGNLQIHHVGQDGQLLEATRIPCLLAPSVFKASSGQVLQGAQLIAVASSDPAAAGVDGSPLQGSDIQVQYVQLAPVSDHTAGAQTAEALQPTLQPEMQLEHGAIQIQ

[4] = target: T4, GST-BANP BEN (human, UniProt Q8N9N5 205-325); conditions: protein: recombinant; tags: N-terminal GST fusion; chain copies: 2; blunt, self-complementary
T4 sequence: T2 sequence with A110K

B1: 12-CGCG (dsDNA)
DNA 1: ATCTCGCGAGAT
DNA 2: ATCTCGCGAGAT
[1]
  Kd: 3.1 ± 0.3 µM
[2]
  Kd: 25.2 ± 3.8 µM
[3]
  Kd: 3.4 ± 0.5 µM
[4]
  Kd: 2.3 ± 0.4 µM
